Laboratory results as given in publication PMC3439536.

Molecular target: Human CR2 SCR1-4-BCCP, site-specifically biotinylated (human) (UniProt P20023)
Test: SPR

70 kDa fragment of the Epstein-Barr virus gp350/220 coat protein, sequence (P03200 whole entry, the tested form may be a part): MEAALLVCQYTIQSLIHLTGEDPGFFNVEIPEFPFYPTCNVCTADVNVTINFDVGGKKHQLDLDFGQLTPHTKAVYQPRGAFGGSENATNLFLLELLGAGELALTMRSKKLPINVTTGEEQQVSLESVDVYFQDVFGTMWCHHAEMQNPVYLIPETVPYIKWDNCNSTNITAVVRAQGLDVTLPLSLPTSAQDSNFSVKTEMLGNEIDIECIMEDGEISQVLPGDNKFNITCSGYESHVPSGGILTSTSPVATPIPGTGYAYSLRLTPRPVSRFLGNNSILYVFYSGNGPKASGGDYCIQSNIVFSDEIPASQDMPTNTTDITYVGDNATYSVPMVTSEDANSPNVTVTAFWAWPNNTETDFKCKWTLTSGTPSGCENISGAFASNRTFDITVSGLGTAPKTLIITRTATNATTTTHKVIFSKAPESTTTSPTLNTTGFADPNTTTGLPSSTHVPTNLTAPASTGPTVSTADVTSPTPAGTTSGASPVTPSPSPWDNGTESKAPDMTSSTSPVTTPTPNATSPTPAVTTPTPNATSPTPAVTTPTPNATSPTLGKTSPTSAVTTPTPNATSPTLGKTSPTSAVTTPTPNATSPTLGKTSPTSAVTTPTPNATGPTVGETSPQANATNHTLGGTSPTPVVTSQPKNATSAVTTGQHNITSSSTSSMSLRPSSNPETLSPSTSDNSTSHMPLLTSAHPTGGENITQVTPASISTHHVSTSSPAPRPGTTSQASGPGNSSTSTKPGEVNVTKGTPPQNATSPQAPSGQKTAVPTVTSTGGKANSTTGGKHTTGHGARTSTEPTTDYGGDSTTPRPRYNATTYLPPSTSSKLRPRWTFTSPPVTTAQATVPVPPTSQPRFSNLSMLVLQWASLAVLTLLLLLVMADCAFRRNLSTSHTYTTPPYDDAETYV
Human CR2 SCR1-4-BCCP, site-specifically biotinylated (human), sequence (P20023 21-273): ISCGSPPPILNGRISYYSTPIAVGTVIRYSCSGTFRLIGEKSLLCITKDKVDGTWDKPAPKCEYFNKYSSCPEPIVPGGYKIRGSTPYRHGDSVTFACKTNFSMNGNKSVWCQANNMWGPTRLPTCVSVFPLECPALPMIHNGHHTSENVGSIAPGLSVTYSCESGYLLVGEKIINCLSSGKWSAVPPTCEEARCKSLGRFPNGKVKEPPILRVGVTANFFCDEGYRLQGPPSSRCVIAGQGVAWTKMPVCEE

For “70 kDa fragment of the Epstein-Barr virus gp350/220 coat protein (from UniProt P03200-1 1-907) (domain or fragment)”, the KD1 (higher affinity site, two-site model) was 0.417 µM.
